# Reference: patent US20250277029A1 (Amgen, published 2025)
# Changes are numbered by the printed parent chain.
# B1: LIBC560340-1 (antibody, V domains shown)
# VH: QVQLQESGPGLVKPSQTLSLICIVSGGSIRRGGDYWNWIRQHPGKGLEWIGHIYYSGSKNYNPSLKSRVTISVDTSKNQFSLKLSSVTAADTAVYYCARGYDSSGYSYYYYGMDVWGQGTTVTVSS
# VL: DIVMTQSPLSLPVTPGEPASISCRSSQSLLYSNGHNFLDWYLQKPGQSPQLLIYLGSNRASGVPDRFSGSGSGTDFTLKISRVEAEDVGVYYCMQALQTPRTFGGGTKVEIKR
# notes: Fully human antibody from the new XenoMouse campaign
# B2: LIBC560340-1 (antibody, V domains shown)
# VH: B1 VH
# VL: B1 VL
# B3: LIBC560657-1 (antibody, V domains shown)
# VH: B1 VH with Q5R, S56T, S58T, N60Y
# VL: B1 VL with F37Y, S61P, Y92F
# notes: as for B1
# B4: LIBC524049-1 (antibody, V domains shown)
# VH: QVQLQESGPGLVKPSQTLSLTCTVSGGSIRRGGDYWSWIRQHPGKGLEWIGHIYYTGSTAYNPSLKSRATISVNTYKNQFSLKLSSVTAADTAVYYCARDYDILTGYSYYYYGMDVWGQGTTVTVSS
# VL: not shown
# notes: Expressed as IgG1 SEFL2 mAb
# B5: LIBC527997-1 (antibody, V domains shown)
# VH: B4 VH with S37A, Y55Q, A60N, S64R, L65F, S67G, D100N, I103T
# VL: DIQMTQSPSSLSASVGDRVTITCRASQSISNYLNWYQQKPGKAPKLLIYAASSLHSGVPSRFSGSGSGTDFTLTISSLQPEDFASYYCQQYQSYPLTFGQGTKVEIKR
# notes: Expressed as IgG1 SEFL2 mAb
# B6: LIBC527919-1 (antibody, V domains shown)
# VH: B4 VH with S37A, I53V, Y55Q, S64N, L65F, S67D, D100N, I103A, T105S
# VL: B5 VL with M4L, S30I, N31S, H55R, S85T, Q92S, S93N, Q100G, K103R
# notes: Expressed as IgG1 SEFL2 mAb
# B7: LIBC524049-1 (antibody, IgG1, V domains shown)
# VH: B4 VH
# VL: not shown
# B8: LIBC529593-1 (antibody, V domains shown)
# VH: B4 VH with T56S, A60N, K66R, A69V, T70R, N74D, Y76S, M114L
# VL: not shown
# B9: LIBC529593-1 (antibody, V domains shown)
# VH: B4 VH with T56S, A60N, K66R, A69V, T70R, N74D, Y76S, M114L
# VL: not shown
# notes: as for B1
# B10: 10D10 (antibody, V domains shown)
# VH: B4 VH with H52Y, T56S, A60N, N74D, Y76S
# VL: not shown
# notes: also called 10D10 antibody; 10D10 parent
# B11: LIBC523969-1 (antibody, V domains shown)
# VH: B4 VH with Y55Q, S58Q, A60K, S64N, S67G
# VL: B1 VL with Y31S, N33T, H35A, F37Y, L55Q, M94R, L97V, Q98G, T99L, G105Q
# Experiments:
# [1] = biological target: T1, truncated human CB1 (devoid of the 1-98 aa N-term), expressed on cells (human, UniProt P21554 99-472); test: FACS on transiently transfected HEK293T cells
# T1 construct: Transiently expressed on HEK293T cells; also called Truncated hu CB1; N-term truncated human CB1
# [2] = biological target: T2, mouse CB1, full length, expressed on cells (mouse, UniProt P47746 1-473); test: FACS on transiently transfected HEK293T cells
# T2 construct: Transiently expressed on HEK293T cells; also called Full length mu CB1; muCB1
# [3] = biological target: T3, human cannabinoid receptor type 2 (CB2), full length, expressed on cells (human, UniProt P34972 1-360); test: FACS on transiently transfected HEK293T cells
# T3 construct: Transiently expressed on HEK293T cells; also called Full length hu CB2; huCB2
# [4] = biological target: T4, human cannabinoid receptor 1 (huCB1), full length, expressed on cells (human, UniProt P21554 1-472); test: FACS on transiently transfected HEK293T cells
# T4 construct: Used for all assays on cells: stably transfected CHO / CHOK1 cells (cAMP assays) and transiently transfected HEK 293T cells (KinExA, FACS); also called Full length hu CB1; wt huCB1
# [5] = biological target: T4, human cannabinoid receptor 1 (huCB1), …; test: cell-based or functional assay
# [6] = biological target: T5, human cannabinoid receptor type 2 (CB2) (human, UniProt P34972 1-360); test: FACS on transfected HEK293T cells
# T5 construct: also called huCB2; full length hu CB2
# [7] = biological target: T6, mouse CB1 (mouse, UniProt P47746 1-473); test: FACS on transfected HEK293T cells
# T6 construct: also called muCB1; murine CB1
# [8] = biological target: T4, human cannabinoid receptor 1 (huCB1), …; test: KinExA on-cell ranking, HEK 293T cells expressing full length CB1; %IFF of LIBC523661 divided by %IFF of antibody
# [9] = biological target: T4, human cannabinoid receptor 1 (huCB1), …; test: cell-based or functional assay; remark: listed apart in the source
# [10] = biological target: T4, human cannabinoid receptor 1 (huCB1), …; test: cell-based or functional assay; remark: listed apart in the source
# [11] = biological target: T4, human cannabinoid receptor 1 (huCB1), …; test: cell-based or functional assay; remark: listed apart in the source
# [12] = biological target: T7, huCB1 nanodisc (CB1-ND) (human, UniProt P21554 99-414); test: Octet BLI; antibody captured by anti-human Fc, CB1-nanodisc in solution, 1:1 model
# T7 construct: The His-tagged CB1 is embedded in a POPC lipid nanodisc with MSP1D1 scaffold protein (molar ratio 480:8:1); also called huCB1-ND; #CB1-008
# [13] = biological target: T8, GFP-fused huCB1-SMALP (human CB1 in styrene maleic acid lipoparticles) (human, UniProt P21554 1-472); test: flow cytometry, yeast-displayed IgG, GFP MFI
# T8 construct: Prepared as in Luna V. et al. 2018; also called huCB1-GFP-SMALP; wtCB1-SMALP; not shown: GFP fusion
# [14] = biological target: T6, mouse CB1; test: binding to muCB1, fold over mock (method not described)
# [15] = biological target: T9, His-tagged huCB1-ND (human CB1 in nanodisc) (human); test: flow cytometry, yeast-displayed IgG, binding/display ratio
# T9 construct: CB1 construct of Cell 167(3) (2016) 750-762 expressed in Sf9 cells; POPC:MSP1D1:CB1 480:8:1; also called CB1-nanodisc; huCB1-Nanodisc; not shown: histidine purification tag
# [16] = biological target: T5, human cannabinoid receptor type 2 (CB2); test: binding to huCB2, fold over mock (method not described)
# [17] = biological target: T9, His-tagged huCB1-ND (human CB1 in …); test: flow cytometry, yeast-displayed IgG, huCB1-ND over empty-ND
# [18] = biological target: T9, His-tagged huCB1-ND (human CB1 in …); test: flow cytometry on IgG-displaying yeast, 0.2 nM His-tagged huCB1 nanodisc, APC anti-His (y) vs PE anti-huFc display (x)
# [19] = biological target: T8, GFP-fused huCB1-SMALP (human CB1 in …); test: flow cytometry on IgG-displaying yeast, 100 nM GFP-fused huCB1-SMALP, GFP in BB515-A (y) vs AlexaFluor647 anti-huFab display in APC-A (x)
# [20] = biological target: T5, human cannabinoid receptor type 2 (CB2); test: fold over mock (Table 14)
# [21] = biological target: T6, mouse CB1; test: fold over mock (Table 14)
# T4 sequence (P21554 whole entry): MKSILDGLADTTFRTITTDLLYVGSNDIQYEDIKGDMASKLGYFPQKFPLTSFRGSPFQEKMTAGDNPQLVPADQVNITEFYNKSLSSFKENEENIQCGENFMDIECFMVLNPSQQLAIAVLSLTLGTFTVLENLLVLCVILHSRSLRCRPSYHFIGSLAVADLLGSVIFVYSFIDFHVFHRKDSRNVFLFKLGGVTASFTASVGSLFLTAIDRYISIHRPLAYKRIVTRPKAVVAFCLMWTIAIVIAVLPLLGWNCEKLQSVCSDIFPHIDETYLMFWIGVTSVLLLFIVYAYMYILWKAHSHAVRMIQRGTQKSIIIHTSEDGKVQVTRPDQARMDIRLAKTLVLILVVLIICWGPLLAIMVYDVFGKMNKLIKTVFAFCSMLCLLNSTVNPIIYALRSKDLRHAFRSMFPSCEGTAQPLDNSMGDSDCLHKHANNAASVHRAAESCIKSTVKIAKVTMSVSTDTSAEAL
# T8 sequence (P21554 whole entry, the tested form may be a part): as the sequence (P21554 whole entry) above
# T3 sequence (P34972 whole entry): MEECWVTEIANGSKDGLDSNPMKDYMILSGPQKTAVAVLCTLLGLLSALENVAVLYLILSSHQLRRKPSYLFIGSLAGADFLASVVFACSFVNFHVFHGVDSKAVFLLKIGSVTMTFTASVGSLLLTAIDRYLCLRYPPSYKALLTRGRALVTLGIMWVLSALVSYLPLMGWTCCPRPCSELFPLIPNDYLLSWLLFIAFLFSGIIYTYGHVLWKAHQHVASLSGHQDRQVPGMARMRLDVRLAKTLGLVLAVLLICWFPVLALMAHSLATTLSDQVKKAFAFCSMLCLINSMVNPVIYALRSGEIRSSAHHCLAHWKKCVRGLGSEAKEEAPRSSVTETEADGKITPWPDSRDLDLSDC
# T5 sequence (P34972 whole entry): as above
# T6 sequence (P47746 whole entry): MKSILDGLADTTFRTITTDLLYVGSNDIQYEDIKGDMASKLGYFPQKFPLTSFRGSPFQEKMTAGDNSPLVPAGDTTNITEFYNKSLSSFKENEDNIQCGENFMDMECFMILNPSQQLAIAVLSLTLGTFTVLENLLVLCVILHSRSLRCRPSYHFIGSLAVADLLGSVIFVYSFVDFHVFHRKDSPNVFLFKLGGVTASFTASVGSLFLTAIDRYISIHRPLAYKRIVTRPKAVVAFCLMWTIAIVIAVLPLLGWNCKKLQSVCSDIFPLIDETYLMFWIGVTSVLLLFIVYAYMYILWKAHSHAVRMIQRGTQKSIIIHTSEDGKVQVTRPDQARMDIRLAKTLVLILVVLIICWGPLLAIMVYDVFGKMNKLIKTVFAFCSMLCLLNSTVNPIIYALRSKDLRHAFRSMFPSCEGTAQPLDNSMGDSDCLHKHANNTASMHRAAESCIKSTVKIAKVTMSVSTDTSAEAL
# T2 sequence (P47746 whole entry): as above
# T1 sequence (P21554 99-472): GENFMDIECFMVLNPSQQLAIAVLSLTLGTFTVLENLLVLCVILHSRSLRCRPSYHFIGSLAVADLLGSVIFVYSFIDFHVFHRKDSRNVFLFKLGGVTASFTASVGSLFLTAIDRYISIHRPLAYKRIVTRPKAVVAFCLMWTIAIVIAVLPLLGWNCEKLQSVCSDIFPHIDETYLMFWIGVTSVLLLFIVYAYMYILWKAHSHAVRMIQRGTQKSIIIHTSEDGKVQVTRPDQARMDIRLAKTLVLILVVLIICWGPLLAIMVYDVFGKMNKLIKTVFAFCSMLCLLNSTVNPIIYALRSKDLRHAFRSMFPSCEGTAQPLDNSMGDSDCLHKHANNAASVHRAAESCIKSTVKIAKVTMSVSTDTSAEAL
# T9 sequence (P21554 99-414): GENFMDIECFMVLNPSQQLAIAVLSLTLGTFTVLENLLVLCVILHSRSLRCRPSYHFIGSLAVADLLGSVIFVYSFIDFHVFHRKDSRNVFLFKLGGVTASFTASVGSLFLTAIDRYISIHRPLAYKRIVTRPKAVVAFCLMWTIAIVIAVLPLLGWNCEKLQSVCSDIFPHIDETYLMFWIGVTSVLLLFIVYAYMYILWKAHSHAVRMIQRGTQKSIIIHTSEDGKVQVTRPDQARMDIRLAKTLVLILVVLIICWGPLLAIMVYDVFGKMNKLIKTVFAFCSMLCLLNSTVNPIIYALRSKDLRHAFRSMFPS
# T7 sequence (P21554 99-414 limits assumed): as the sequence (P21554 99-414) above
binder,measurement,setting,value
B1,MFI ratio (target- vs mock-transfected cells),[1],705 ratio
same,MFI ratio (target- vs mock-transfected cells),[2],1 ratio
same,MFI ratio (target- vs mock-transfected cells),[3],1 ratio
same,MFI ratio (target- vs mock-transfected cells),[4],578 ratio
same,"IC50, nM (TR-FRET cAMP assay, CP55,940 and Forskolin)",[5],10.2 nM
B2,binding result,[6],no binding
same,binding result,[7],no binding
B3,MFI ratio (target- vs mock-transfected cells),[1],444 ratio
same,MFI ratio (target- vs mock-transfected cells),[2],1 ratio
same,MFI ratio (target- vs mock-transfected cells),[3],1 ratio
same,MFI ratio (target- vs mock-transfected cells),[4],440 ratio
same,"IC50, nM (TR-FRET cAMP assay, CP55,940 and Forskolin)",[5],7.5 nM
B4,"Relative binding (KinExA, on cell; vs LIBC523661 mAb)",[8],1.5 ratio
same,"Mean IC50 (nM), cAMP antagonist assay",[9],2.87 nM
same,"Mean IC50, -fold vs Rimo",[9],0.96 fold vs Rimonabant
same,"n = 1 IC50 (nM), cAMP antagonist assay",[9],4.41 nM
same,"n = 1 IC50, -fold vs Rimo",[9],1.05 fold vs Rimonabant
same,"n = 2 IC50 (nM), cAMP antagonist assay",[9],1.34 nM
same,"n = 2 IC50, -fold vs Rimo",[9],0.75 fold vs Rimonabant
same,"Mean IC50 (nM, n = 3), cAMP antagonist assay",[10],3.71 nM
same,"IC50, nM (CP agonist)",[11],3.7 nM
same,Kd,[12],15 nM
same,koff,[12],0.000904 s⁻¹
same,kon,[12],59000 M⁻¹ s⁻¹
B5,"Relative binding (KinExA, on cell; vs LIBC523661 mAb)",[8],2.1 ratio
same,"Mean IC50 (nM), cAMP antagonist assay",[9],2.97 nM
same,"Mean IC50, -fold vs Rimo",[9],0.99 fold vs Rimonabant
same,"n = 1 IC50 (nM), cAMP antagonist assay",[9],4.37 nM
same,"n = 1 IC50, -fold vs Rimo",[9],1.04 fold vs Rimonabant
same,"n = 2 IC50 (nM), cAMP antagonist assay",[9],1.57 nM
same,"n = 2 IC50, -fold vs Rimo",[9],0.88 fold vs Rimonabant
same,"Mean IC50 (nM, n = 3), cAMP antagonist assay",[10],2.54 nM
same,"IC50, nM (CP agonist)",[11],2.5 nM
same,Kd,[12],26 nM
same,koff,[12],0.00136 s⁻¹
same,kon,[12],51800 M⁻¹ s⁻¹
B6,"Relative binding (KinExA, on cell; vs LIBC523661 mAb)",[8],2.9 ratio
same,"Mean IC50 (nM), cAMP antagonist assay",[9],3.44 nM
same,"Mean IC50, -fold vs Rimo",[9],1.15 fold vs Rimonabant
same,"n = 1 IC50 (nM), cAMP antagonist assay",[9],5.09 nM
same,"n = 1 IC50, -fold vs Rimo",[9],1.21 fold vs Rimonabant
same,"n = 2 IC50 (nM), cAMP antagonist assay",[9],1.8 nM
same,"n = 2 IC50, -fold vs Rimo",[9],1 fold vs Rimonabant
same,"Mean IC50 (nM, n = 3), cAMP antagonist assay",[10],3.01 nM
same,"IC50, nM (CP agonist)",[11],3 nM
same,Kd,[12],60 nM
same,koff,[12],0.00339 s⁻¹
same,kon,[12],56200 M⁻¹ s⁻¹
B7,100 nM huCB1-SMALP binding (normalized to 10D10),[13],5.51 fold
same,Fold over mock,[14],0.8 fold
same,relative binding to 0.2 nM huCB1-ND (relative to 10D10N35Y),[15],5.01 fold
same,Fold over mock,[16],1 fold
same,specific huCB1 binding (CB1 ND/Empty ND ratio),[17],9.5 ratio
same,"% of events in the upper right quadrant (display-positive, binding-positive)",[18],39.9%
same,"% of events in the upper right quadrant (display-positive, binding-positive)",[19],24.8%
same,binding result,[20],no binding
same,binding result,[21],no binding
B8,binding result,[6],no binding
same,binding result,[7],no binding
B9,MFI ratio (target- vs mock-transfected cells),[1],495 ratio
same,MFI ratio (target- vs mock-transfected cells),[2],1 ratio
same,MFI ratio (target- vs mock-transfected cells),[3],1.1 ratio
same,MFI ratio (target- vs mock-transfected cells),[4],422 ratio
same,"IC50, nM (TR-FRET cAMP assay, CP55,940 and Forskolin)",[5],6.4 nM
B10,"% of events in the upper right quadrant (display-positive, binding-positive)",[18],0.431%
same,"% of events in the upper right quadrant (display-positive, binding-positive)",[19],1.48%
same,binding result,[20],no binding
same,binding result,[21],no binding
B11,100 nM huCB1-SMALP binding (normalized to 10D10),[13],5.69 fold
same,relative binding to 0.2 nM huCB1-ND (relative to 10D10N35Y),[15],4.53 fold
same,specific huCB1 binding (CB1 ND/Empty ND ratio),[17],12.8 ratio
same,"% of events in the upper right quadrant (display-positive, binding-positive)",[18],46.8%
same,"% of events in the upper right quadrant (display-positive, binding-positive)",[19],27.2%
